Measurements taken from patent publication US20240301041A1 (Regeneron, published 2024).

Experiments:
IsdA.6xHis [1] = molecular target: T1, IsdA.6xHis (Staphylococcus aureus, UniProt A6QG31 47-316); experiment: SPR (Biacore), mAb captured by anti-human Fc, IsdA.6xHis injected, 37 C
T1 construct: also called IsdA-6× His; IsdA.6×His
T1 sequence: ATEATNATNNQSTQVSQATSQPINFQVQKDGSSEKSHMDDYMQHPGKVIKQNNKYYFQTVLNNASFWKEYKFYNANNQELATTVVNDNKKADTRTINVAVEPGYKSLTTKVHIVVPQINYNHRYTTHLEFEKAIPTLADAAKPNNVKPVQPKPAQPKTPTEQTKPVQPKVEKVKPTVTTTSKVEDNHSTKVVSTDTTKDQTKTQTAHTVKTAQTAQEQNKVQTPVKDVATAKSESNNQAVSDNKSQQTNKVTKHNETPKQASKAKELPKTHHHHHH
Procedure: (§1) The equilibrium dissociation constants (KD) to Protein A and IsdA.6×His reagents binding to purified anti-IsdA*/* and anti-Protein A*/* monoclonal antibodies were determined using a real-time surface plasmon resonance based Biacore T200 or Biacore 4000 biosensor. All binding studies were performed in 10 mM HEPES, 150 mM NaCl, 3.4 mM EDTA and 0.05% v/v Tween-20, pH 7.4 (HBS-EP) running buffer at 25° C. and 37° C. […] Proteins were injected over the captured anti-IsdA*/* and anti-Protein A*/* monoclonal antibody surface for 3-3.5 minutes at a flow rate of 30-50 μL/minute, while the dissociation of monoclonal antibody bound IsdA.6×His and Protein A reagent was monitored for 5-10 minutes in HBS-EP running buffer. The association rate (ka) and dissociation rate (kd) were determined by fitting the real-time binding sensorgrams to a 1:1 binding model with mass transport limitation using Scrubber 2.0c curve-fitting software. Binding dissociation equilibrium constant (KD) and dissociative half-life (t½) were calculated from the kinetic rates as:

IsdA.6xHis [2] = molecular target: T1, IsdA.6xHis; experiment: SPR (Biacore), mAb captured by anti-human Fc, IsdA.6xHis injected, 25 C
Procedure: as §1

B1: H1xH20334P2*/* (anti-IsdA) (antibody, V domains shown)
VH: EVQLVESGGGLVQPGRSLRVSCAASGFTFDDYAMHWVRQIPGKGLEWVSGIRWNSDTIGYADSVKGRFTISRDNAKNFLYLQMNSLRTEDTALYYCVKDMRVRGIIMYGMDVWGQGTTVTVSS
VL: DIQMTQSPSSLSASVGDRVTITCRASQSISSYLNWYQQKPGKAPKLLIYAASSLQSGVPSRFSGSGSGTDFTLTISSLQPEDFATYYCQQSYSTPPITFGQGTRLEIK
notes: also called anti-IsdA*/* monoclonal antibody
Question: With B1 as the binder, how does the Kd (IsdA.6xHis [1]) read?
Answer: 3.49 nM

Question: And the koff (IsdA.6xHis [1])?
Answer: 0.00167 s⁻¹

Question: What about the kon (IsdA.6xHis [1]) of the same binder?
Answer: 479000 M⁻¹ s⁻¹

Question: What about the t½ (IsdA.6xHis [1]) of the same binder?
Answer: 7 min

Question: What about the Kd (IsdA.6xHis [2]) of the same binder?
Answer: 1.28 nM

Question: And the koff (IsdA.6xHis [2])?
Answer: 0.000446 s⁻¹

Question: And the kon (IsdA.6xHis [2])?
Answer: 348000 M⁻¹ s⁻¹

Question: And the t½ (IsdA.6xHis [2])?
Answer: 26 min
